Source: patent US20230303648A1 (OSE IMMUNOTHERAPEUTICS, published 2023)

Assays:
[1] = molecular target: T1, CD127 recombinant protein (Histidine tagged, Sino ref 10975-H08H) (UniProt P16871 21-239); experiment: sandwich ELISA, PD-1 immobilised, molecule preincubated with His-tagged CD127, anti-His-biotin + streptavidin-peroxidase, 450 nm
T1 construct: bought; used in the CD127 sandwich ELISA; also called CD127 receptor; IL-7Ralpha; not shown: histidine tag
T1 sequence (looked up): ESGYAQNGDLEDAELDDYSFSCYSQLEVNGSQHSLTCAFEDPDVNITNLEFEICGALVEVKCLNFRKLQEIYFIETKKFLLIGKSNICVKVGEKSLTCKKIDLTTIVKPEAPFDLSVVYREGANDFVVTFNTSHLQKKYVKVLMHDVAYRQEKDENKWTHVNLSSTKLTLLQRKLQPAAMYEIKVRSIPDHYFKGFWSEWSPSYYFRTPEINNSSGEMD
Experimental: Colorimetry was determined at 450 nm using TMB substrate. […] C.
Colorimetry was determined at 450 nm using TMB substrate.

[2] = molecular target: T2, CD132 receptor (Sinobiological 10555-H08B) (UniProt P31785 23-254); experiment: Biacore, steady-state model: CD127 immobilised, IgG4 alone injected, then CD132 at 31.25-500 nM; baseline of CD127 with CD132 in the absence of IL-7
T2 construct: bought; analyte in the Biacore CD132 assay; also called common gamma chain
T2 sequence (looked up): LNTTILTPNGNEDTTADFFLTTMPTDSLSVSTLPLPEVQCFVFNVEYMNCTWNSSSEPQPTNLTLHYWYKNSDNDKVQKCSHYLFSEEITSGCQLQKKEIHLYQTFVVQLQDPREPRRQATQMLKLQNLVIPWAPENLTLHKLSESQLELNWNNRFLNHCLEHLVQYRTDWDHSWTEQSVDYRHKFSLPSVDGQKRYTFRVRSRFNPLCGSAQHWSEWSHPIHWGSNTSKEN

[3] = molecular target: T3, recombinant human PD-1 (rPD1; Sino Biologicals, reference 10377-H08H) (human, UniProt Q15116 25-167); experiment: ELISA: PD-1 immobilised, anti-human Fc peroxidase detection
T3 construct: bought; also called hPD1; PD-1 receptor
Experimental: A. PD-1 binding ELISA assay. Human recombinant PD-1 (rPD1) protein was immobilized, and antibodies were added at different concentrations. Revelation was performed with an anti-human Fc antibody coupled to peroxidase. Colorimetry was determined at 450 nm using TMB substrate. The anti PD-1 with 1 (anti PD-1*1 ▲ grey) or 2 anti PD-1 arms (anti PD-1*2 ◆) were tested as control. […] All constructions tested comprise a […] linker between the Fc and IL-7 domain.

[4] = molecular target: T4, biotinylated recombinant human PD-1 (human, UniProt Q15116 25-167, limits assumed, biotinylated (site not stated)); experiment: competition ELISA: PD-L1 immobilised (competitor), biotinylated PD-1 at 0.6 µg/mL premixed with the molecule
T4 construct: used in solution in the PD-1/PD-L1 antagonist ELISA; also called PD-1 receptor
T4 sequence (Q15116 25-167 limits assumed): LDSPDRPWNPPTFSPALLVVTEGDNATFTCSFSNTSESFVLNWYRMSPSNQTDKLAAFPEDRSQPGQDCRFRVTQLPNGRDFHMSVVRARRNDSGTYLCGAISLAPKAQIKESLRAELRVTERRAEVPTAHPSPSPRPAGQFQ

T3 sequence (Q15116 25-167 limits assumed): as above

B1: anti PD-1 W142H bifunctional molecule with an isotype IgG1m + YTE (grey circle; no label printed on the sheet, name taken from legend paragraph 41) (other)
heavy: QIQLVQSGSELKKPGASVKVSCKASGYTFTHYAMNWVRQAPGQGLEWMGWINTNTGEPTYAQGFTGRFVFSLDTSVSTAYLQISSLKAEDTAVYYCAREREPGMDNWGQGTLVTVSSASTKGPSVFPLAPSSKSTSGGTAALGCLVKDYFPEPVTVSWNSGALTSGVHTFPAVLQSSGLYSLSSVVTVPSSSLGTQTYICNVNHKPSNTKVDKKVEPKSCDKTHTCPPCPAPELLGGPSVFLFPPKPKDTLYITREPEVTCVVVDVSHEDPEVKFNWYVDGVEVHNAKTKPREEQYASTYRVVSVLTVLHQDWLNGKEYKCKVSNKALPAPIEKTISKAKGQPREPQVYTLPPSRDELTKNQVSLTCLVKGFYPSDIAVEWESNGQPENNYKTTPPVLDSDGSFFLYSKLTVDKSRWQQGNVFSCSVMHEALHNHYTQKSLSLSPGKGGGGSGGGGSGGGGSDCDIEGKDGKQYESVLMVSIDQLLDSMKEIGSNCLNNEFNFFKRHICDANKEGMFLFRAARKLRQFLKMNSTGDFDLHLLKVSEGTTILLNCTGQVKGRKPAALGEAQPTKSLEENKSLKEQKKLNDLCFLKRLLQEIKTCHNKILMGTKEH
light: DVVMTQSPLSLPVTLGQPASISCRSSQSLVHANTNTYLEWYQQRPGQSPRLLIYKVSNRFSGVPDRFSGSGSGTDFTLKISRVEAEDVGVYYCFQGTHVPNTFGQGTKLEIKRTVAAPSVFIFPPSDEQLKSGTASVVCLLNNFYPREAKVQWKVDNALQSGNSQESVTEQDSKDSTYSLSSTLTLSKADYEKHKVYACEVTHQGLSSPVTKSFNRGEC
notes: also called anti PD-1 IL-7 W142H IgG1m + YTE
B1 was tested, and the “EC50 (read off the curve)” value [1] was ~0.05 µg/mL.

B2: CD127 (Sinobiological, 10975-H03H-50) (receptor, UniProt P16871 21-239, looked up)
chain: T1 sequence (looked up)
notes: bought; immobilised on the CM5 chip in the Biacore assays; also called CD127 receptor
B2 gave a Kd [2] of 2500 nM.

B3: anti-PD1*2 (control antibody without any IL7) (antibody, IgG4, V domains shown)
VH: QIQLVQSGSELKKPGASVKVSCKASGYTFTHYAMNWVRQAPGQGLEWMGWINTNTGEPTYAQGFTGRFVFSLDTSVSTAYLQISSLKAEDTAVYYCAREREPGMDNWGQGTLVTVSS
VL: DVVMTQSPLSLPVTLGQPASISCRSSQSLVHANTNTYLEWYQQRPGQSPRLLIYKVSNRFSGVPDRFSGSGSGTDFTLKISRVEAEDVGVYYCFQGTHVPNTFGQGTKLEIKR
notes: two anti PD-1 arms
Binder B3 has an EC50 [3] of 0.021 nM.

B4: anti-PD-1*1 (control construction, one anti PD-1 arm, devoid of IL-7 variant) (antibody, human IgG1, kappa, N297A)
heavy: QIQLVQSGSELKKPGASVKVSCKASGYTFTHYAMNWVRQAPGQGLEWMGWINTNTGEPTYAQGFTGRFVFSLDTSVSTAYLQISSLKAEDTAVYYCAREREPGMDNWGQGTLVTVSSASTKGPSVFPLAPSSKSTSGGTAALGCLVKDYFPEPVTVSWNSGALTSGVHTFPAVLQSSGLYSLSSVVTVPSSSLGTQTYICNVNHKPSNTKVDKKVEPKSCDKTHTCPPCPAPELLGGPSVFLFPPKPKDTLMISRTPEVTCVVVDVSHEDPEVKFNWYVDGVEVHNAKTKPREEQYASTYRVVSVLTVLHQDWLNGKEYKCKVSNKALPAPIEKTISKAKGQPREPQVYTLPPCRDELTKNQVSLWCLVKGFYPSDIAVEWESNGQPENNYKTTPPVLDSDGSFFLYSKLTVDKSRWQQGNVFSCSVMHEALHNHYTQKSLSLSPGK
chain: DKTHTCPPCPAPELLGGPSVFLFPPKPKDTLMISRTPEVTCVVVDVSHEDPEVKFNWYVDGVEVHNAKTKPREEQYASTYRVVSVLTVLHQDWLNGKEYKCKVSNKALPAPIEKTISKAKGQPREPQVYTLPPCRDELTKNQVSLWCLVKGFYPSDIAVEWESNGQPENNYKTTPPVLDSDGSFFLYSKLTVDKSRWQQGNVFSCSVMHEALHNHYTQKSLSLSPGK
light: B1 light
notes: one-armed antibody, IgG1 N298A
In the case of B4, the EC50 [3] is reported as 0.238 nM and the EC50 [4] is reported as 5.01 nM.
